{"source": "paper PMC12419796", "biological_target": "H1N1 A/PR/8/1934 (Cambridge strain) neuraminidase, recombinant soluble tetramer with tetrabrachion domain (Staphylothermus marinus | influenza A virus H1N1 A/PR/8/1934 (Cambridge strain))", "assay": "cross-linking", "data": [{"substance": "H1N1 A/PR/8/1934 (Cambridge strain) neuraminidase, recombinant soluble tetramer with tetrabrachion domain (enzyme)", "values": [{"measurement": "stoichiometry N", "value": 4}]}]}
